Laboratory results taken from the nanobody polyreactivity screen of Harvey et al. (2022).

Assay: yeast display, Sf9 membrane polyspecificity reagent, FACS + sequencing; frameworks hold sequencing errors
In short: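 Synthetic nanobody libraries on Saccharomyces cerevisiae BJ5465 were galactose-induced for 36–48 hours, stained 1 hour at 4 °C with 10% biotinylated, detergent-solubilized Sf9 membrane reagent and enriched on streptavidin microbeads. FACS then separated cells into low and high (top ~1%) gates by anti-HA (expression) and streptavidin (reagent binding) fluorescence. Genes were colony-PCR amplified, MiSeq 2 × 250 sequenced and CDR-length filtered. A clone's polyreactivity label is that of its gate of origin.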

Sequence | polyreactivity (PSR sort gate)
QVQLVESGGGLVQAGGSLRLSCAASGRIFLPNAMGWYRQAPGKERELVATITRGGGSTYYADSVKGRFTISRDNAKNTVYLQMNSLKPEDTAVYYCAKGYLLYQGHLPYWHRGGYWGQGTQVTVSS | high polyreactivity
QDQLVESGGGLVQAGGSLRLICAASGSTFDSYAMGWYRQAPGKERELVAAITRSVGSTYYADSVKGRFTISRDNAKYTVYLLMKSLKPEDTAVYYCAARGEWAIYVEFDYWGQGTQVTVSS | low polyreactivity
QVQLVESGGGLVQAGGSLRLSCAASGFIFWYYAMGWYRQAPGKERELVAAISWSGTSTYYADSVKGRFTISRDNAKNTVYLQMNSLKPEDTAVYYCAAGPYSYYPLHAHYDYWGQGTQVTVSS | high polyreactivity
QVQLVESGGGLVHAGGSLSLSCAASGRTFRQYAMGWYRQAHGKERELVAAISKGGGSTYYADSEKGRFTISRDNAKNTVYLQMNSLKPEVKAVYYCNAPGYVLKGYDYWGQGTQVTVSS | high polyreactivity
QVQLVESGGGLVQAGGSLRLSCAASGRIFWRYAMGWYRQAPGKERQLVAGITYSGGRTYYADSVKGRFTISRDNAKNTVYLQMNSLKPEDTAVYYCAARGYFDALFDYWGQGTQVTVSS | low polyreactivity
QVQLVESGGGLVQAGGSLRLSGAASGRNFSTNAMGWYRPAPGKERELVAAITSGGNTYADSVKGRFTISRDNAKNTVYLQMNSLKPEDTAVYYCAARLYWGRYNYWGQGTQVTVSS | high polyreactivity
QDQLVESGGGLVQAGGSLRLSCAASGLIFTGNVMGWYRQEPGKERELVAAISRSGGRTYYADSVKGRFTISRDNAKNTVYLQMNSLKREDTAVYYCNKVSPERVYYGSYFRYYYWGQGTQVTVSS | high polyreactivity
QVQLVESVVGLVQAGGSLRLSSAASGRIFNQYGMGWYRQSPGKESELVAAIRSGDSTNYADSVKGRFTISRDNAKNTVYLQMNSLKPEDTAVYYCARDLPGDYAGFDYWGQGTQVTVSS | low polyreactivity
QVQLLESGRGLVQAGGSLRLSCAPSGSIFSGMVMGWYIQAPGKERELVAAISSRGGNTYYADSVKGRFTISRDNAKNTVYLQMNSLITEDTAVYYCNKVKFNWYEWGQGTQVSVSS | high polyreactivity
QVQLVESGGGLVQAGGSLRLSCAASGGTFRPYAMGWYRQAPGKERELVATIRSSGGRTYYADSVKGRFTISRDNAKNTVYLQMNSLKPDDTAVYYCAKRAQTYYGYDYWGQGTQVTVSS | high polyreactivity
QVQLVESGGGLVQAGGSHRLSCAASGRPSAVNALGWSRQAPGKERELVAAITYGGDSTFYADSVKGRFTISRDNAKNTVYLQMNSLKPEDTAVYYCNADIWFIWHSFGWGYDYWGQGTQVTVSS | low polyreactivity
QVQLVESGGGLVQAGGSLRLSCAASGRIFGTYAMGWYRQAPGKERELVAAISSSGTSTYYADSVKGRFTISRDNAKNTVYLQMNSLKPEDTAVYYCAADTVSFSILYDYWGQGTQVTVSS | low polyreactivity
QVQLVESGGRLVQAGGSLRLSCAASGRIFYPYAMGWYRQAPGKERELVASISSSGDRTYYADSVKGRFTISRDNAKNTVYLQMNSLKPEDTAVYYCAARWRYTYYYWGQGTQVTVSS | high polyreactivity
QVQLVESGGGLVQAGGSLRLSCAASGSTYDIYAMGWYRQAPGKEREKVAAISWSGGSTHYADSVKGRFTISRDNAKNTVFFQMNSLKPEDTAVYYCAAVGRLWSLWRTKSYNYWGQGTEVTVSS | low polyreactivity
QVQLVESGGGLVQAGGSLRLSCAASGGIFLRYSMGWYRQAPGKERELVAAITANGGSTYYADSVKGRFTISRDNAKNTVYLQMISMKPEDTAVYYCNADSFPALNKRGYDYWGQVTQVTVSS | low polyreactivity
QVQLVESGGCLVKAGCSLRLSCAASGRIFFVNAMGWYRPAPGKECELVAAISRGGSTNYADSVKGRFTISRDNAMNTVYLQMNILKPEDTEVYYCAAGYVRYPGVIDEYWGPGTQVTVSS | low polyreactivity

Sequence | polyreactivity (PSR sort gate)
QVQLVESGGGLVQAGGTLRLRCAASGFTFRYYVMRWYRQAPGKERELVAAITSGGSTNYADSVKGRFSISRDNAQNTVYLLMNSLKPEDTAVYYCAAGLSYRHNYWGQGTQVTVSS | low polyreactivity
QVQLVESGGGLVQAGGSLRLSCAASGSIFPIYAMGRYRQAPGKEMELVAAINRSGGSTYYADSVKGRFTISRDNAKNSVYLQMNSLIPEDTAVYYCNADYGYHNQLFWGYYGWSSDHWGQGTQVTVSS | low polyreactivity
QVQLVESGGGLVQAGGSLRLSCAASGFTFSHYAMGWYRQAPGKERELVAAISWGGGSTYYADSVKGRFTISRDNAKNTVYLQMKSLIPEDTAVYYCARDVVYRGYYYGAFDYCGQGTQVTVSS | low polyreactivity
QVQLVESGGGLVQAGGSLRLSCPASGRTFGDYAMGWYRQAPGKERELVAAISSSGGRTYYADSVKGRFTISRDNAKNTVYLQMNSLKPEDTAVYYCAAQSKYYQYYSWGQGTQVTVSS | high polyreactivity
QVQLVESGVGLVQAGGSLRLSCAASGRIFRRYTMGWYRQPPGKERELVAAISASGGNTYYADSVKGRFTISRDNAKNTVYLQMNSLKPEDTAVYYCARRWRPWTQDGDDYWGQGTQVTVSS | high polyreactivity
QVQLVESGGGLVQAGGSLRLSCAASGRTIGYYAMGWYRQAPGKERELVAAITWSGGNTYYADSVKGRFTISRDNAKNTVYLQMNSLKPEDTAVYYCNALYLWGMDYWGQGTQVTVSS | low polyreactivity
QVQLVESGGGLVQAGGSLRLSCAASGSTVGANAMGWYRQAPGKERELVATISSGGRTYYADSVKGRFTISRDNAKNTVYLQMNSLKPEDTAVYYCNAGADYTYVYISVYVLYDYWGQGTQVTVSS | low polyreactivity
QVQLVESGGGLVQAGGSLRLSCAASGSIFSSYAMGWYRQAPGKERELVAAISSSGDSTYADSVKGRFTISRDNAKNTVYLQMNSLKPEDTAVYDCAVGGAGSDDYWGQGTQVTVSS | low polyreactivity
QVQLVESGGGLVQAGGSLRLSCASSGRILYLNAMGWYRQAPGKERELVAAITLRAGSTRYADSVKGRFTISRDNAKNTVYLQMNSLKPEDTAVYYCAVAYYRNRMDYWVQGTQVTVSS | high polyreactivity
QVQLVESGGGLVQAGGSLRLSCAATGRIFKTYAMGWYRQAPGKERELVAAISWTVVSTHYADSVKGRFTISRDNAKNTVYLQMNSLKPEDTAVYYCNADTPLRHRTWNRKVTDFEYDYWGQGTQVTVSS | low polyreactivity
QVQLVESGGGLVQAGGSLRLSCPASGYIFYRNAMVWYRQAPGKERELVAAITYTGGRTYYADSVKGRFTISRDNAKNTVYLQMNSLNPEDTAVYYCNADGRVFVVRPYYDYEYWGQGTQVTVSS | low polyreactivity
QVQLVESGGGLVQAGGSLRLSCAASGNTFDGYDMGWYRQAPGKERELVAAITNTGASTYYADSVKGRFTISRDNAKNTVYLQMNSLKPEDTAVYYCNAQDSYPEDRHGMSYWGQGTQVTVSS | low polyreactivity
QVQLVESGGGLVQAGGSLRLSCAASGSTYYENTMGWYRQAPGKEREMVAAISFRGGSTYYADSVKGRFTISRDNAKNTVYLQMNSLKPDDTAVYYCAKEYYTVRLYDYWGQGTQGTVSS | low polyreactivity
QVHLVESGGGLVQAGGSLRLSCAASGFTFTRYAMGWYRQAPGKERELVAAISFSGGSTYYADSVKGRFTISRDNAKNTVYLQMNSLKPEDTAVYYCAGRWSVSYQYWGQGTQVTVSS | high polyreactivity
QVQLVDSGGGLVQAGGSLRLSCAASGIIFVENAMGWYRQAPGKEREMVAAISWDGGSTYYADSVKGRFTISRDNAKNTVYLQMNSLKPEDTAVYYCAADLTISYSQEYYYWGQGTQVTVSS | low polyreactivity
QVQLVESGGGLVQAGGSLRLSCAASGTIFASYAMGWYRQAPGKERELVAAISDGGGRTYYADSVKGRFTISRDNAKNTVYLQMNSLKPEDTAVYYCAAYAVYTYRRARGYWGQGTQVTVSS | high polyreactivity
